Measured values from PMC5147500 (2016).

Target: retromer (Homo sapiens, UniProt O75436)
Assay: ITC

Kd: ~127 µM
Binder: AQPELYLLNTMDADSLVSR (in presence of SNX3) [DMT1-II recycling signal]
